From article PMC9482650, “Quantitative fragmentomics allow affinity mapping of interactomes” (Nature Communications, 2022)

T1: FRMPD1, Q5SYB0
T1 sequence (Q5SYB0 52-145, limits assumed, looked up): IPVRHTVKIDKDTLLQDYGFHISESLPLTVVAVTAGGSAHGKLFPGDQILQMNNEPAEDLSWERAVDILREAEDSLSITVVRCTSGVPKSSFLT

T2: SNTG2, Q9NY99
T2 sequence (Q9NY99 68-166, limits assumed, looked up): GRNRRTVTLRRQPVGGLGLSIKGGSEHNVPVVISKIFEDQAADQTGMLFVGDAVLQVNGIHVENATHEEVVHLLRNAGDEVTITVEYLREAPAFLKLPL

T3: LIN7C, Q9NUP9
T3 sequence (Q9NUP9 88-185, limits assumed, looked up): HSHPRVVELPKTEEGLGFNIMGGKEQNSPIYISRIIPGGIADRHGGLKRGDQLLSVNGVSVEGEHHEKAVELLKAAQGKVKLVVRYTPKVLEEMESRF

T4: TX1BP3, O14907
T4 sequence (O14907 10-122, limits assumed, looked up): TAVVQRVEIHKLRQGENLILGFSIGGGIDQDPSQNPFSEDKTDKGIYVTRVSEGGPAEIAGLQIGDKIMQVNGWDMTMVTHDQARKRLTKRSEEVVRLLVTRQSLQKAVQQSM

T5: PTPN13_1, Q12923
T5 sequence (Q12923 1088-1188, limits assumed, looked up): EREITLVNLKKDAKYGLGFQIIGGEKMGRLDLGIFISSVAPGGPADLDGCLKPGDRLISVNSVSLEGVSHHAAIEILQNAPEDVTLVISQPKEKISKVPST

T6: TJP3_3, O95049
T6 sequence (O95049 375-456, limits assumed, looked up): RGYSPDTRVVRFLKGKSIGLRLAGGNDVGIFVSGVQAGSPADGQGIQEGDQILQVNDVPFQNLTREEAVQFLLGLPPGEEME

T7: SNTA1, Q13424
T7 sequence (Q13424 82-180, limits assumed, looked up): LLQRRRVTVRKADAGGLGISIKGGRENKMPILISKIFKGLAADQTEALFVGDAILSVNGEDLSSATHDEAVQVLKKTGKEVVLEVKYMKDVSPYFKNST

T8: RHPN1, Q8TCX5
T8 sequence (Q8TCX5 508-602, limits assumed, looked up): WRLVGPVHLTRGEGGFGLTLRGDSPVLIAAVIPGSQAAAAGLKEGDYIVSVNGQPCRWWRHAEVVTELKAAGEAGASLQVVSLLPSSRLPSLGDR

T9: PDZD7_3, Q9H5P4
T9 sequence (Q9H5P4 857-944, limits assumed, looked up): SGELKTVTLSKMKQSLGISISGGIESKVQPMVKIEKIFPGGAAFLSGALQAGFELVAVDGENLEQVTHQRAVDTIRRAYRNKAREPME

T10: HTRA3, P83110
T10 sequence (P83110 354-453, limits assumed, looked up): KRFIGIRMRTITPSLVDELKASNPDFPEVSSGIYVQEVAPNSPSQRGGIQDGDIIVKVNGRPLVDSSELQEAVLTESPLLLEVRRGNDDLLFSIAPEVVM

T11: APBA3_1, O96018
T11 sequence (O96018 389-490, limits assumed, looked up): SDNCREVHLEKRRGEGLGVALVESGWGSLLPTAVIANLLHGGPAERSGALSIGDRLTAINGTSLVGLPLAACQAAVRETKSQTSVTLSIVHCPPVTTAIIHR

T12: DVL3, Q92997
T12 sequence (Q92997 244-331, limits assumed, looked up): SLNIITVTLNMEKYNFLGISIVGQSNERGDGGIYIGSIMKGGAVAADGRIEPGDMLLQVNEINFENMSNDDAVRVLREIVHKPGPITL


Molecular target: FRMPD2_1, Q68DX3
Experiment: holdup assay
Design: key: below the threshold = too weak to quantify, mostly under pKd 3.1 to 4
Details: plain residues with an end cap or a label only (N-terminal biotin on a linker: ado-ado)

Chain of FRMPD2_1, Q68DX3 (Q68DX3 770-861): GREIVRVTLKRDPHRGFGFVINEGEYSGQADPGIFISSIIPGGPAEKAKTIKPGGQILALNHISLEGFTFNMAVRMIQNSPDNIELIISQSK

Binder	pKd
RDFDYIADWC [PKN2, Q16513]	below the threshold
VRPGVKESLV [SCN4A, P35499]	below the threshold
TGPWKNETTV [ADGRA1, Q86SQ6]	below the threshold

Molecular target: GRIP2_3, Q9C0E4
Experiment: holdup assay
Design: key: below the threshold = too weak to quantify, mostly under pKd 3.1 to 4
Details: plain residues with an end cap or a label only (N-terminal biotin on a linker: ado-ado)

Chain of GRIP2_3, Q9C0E4 (Q9C0E4 238-339): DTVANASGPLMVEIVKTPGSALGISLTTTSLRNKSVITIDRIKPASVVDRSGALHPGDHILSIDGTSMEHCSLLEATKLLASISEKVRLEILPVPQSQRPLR

Binder	pKd
RDFDYIADWC [PKN2, Q16513]	below the threshold
VRPGVKESLV [SCN4A, P35499]	below the threshold
TGPWKNETTV [ADGRA1, Q86SQ6]	below the threshold

Molecular target: T1, FRMPD1, Q5SYB0
Experiment: holdup assay
Design: key: below the threshold = too weak to quantify, mostly under pKd 3.1 to 4
Details: plain residues with an end cap or a label only (N-terminal biotin on a linker: ado-ado)

Binder	pKd
RDFDYIADWC [PKN2, Q16513]	below the threshold
VRPGVKESLV [SCN4A, P35499]	below the threshold
TGPWKNETTV [ADGRA1, Q86SQ6]	below the threshold

Molecular target: T2, SNTG2, Q9NY99
Experiment: holdup assay
Design: key: below the threshold = too weak to quantify, mostly under pKd 3.1 to 4
Details: plain residues with an end cap or a label only (N-terminal biotin on a linker: ado-ado)

Binder	pKd
RDFDYIADWC [PKN2, Q16513]	below the threshold
VRPGVKESLV [SCN4A, P35499]	4.77
TGPWKNETTV [ADGRA1, Q86SQ6]	4.26

Molecular target: T3, LIN7C, Q9NUP9
Experiment: holdup assay
Design: key: below the threshold = too weak to quantify, mostly under pKd 3.1 to 4
Details: plain residues with an end cap or a label only (N-terminal biotin on a linker: ado-ado)

Binder	pKd
RDFDYIADWC [PKN2, Q16513]	below the threshold
VRPGVKESLV [SCN4A, P35499]	4.38
TGPWKNETTV [ADGRA1, Q86SQ6]	4.27

Molecular target: T4, TX1BP3, O14907
Experiment: holdup assay
Design: key: below the threshold = too weak to quantify, mostly under pKd 3.1 to 4
Details: plain residues with an end cap or a label only (N-terminal biotin on a linker: ado-ado)

Binder	pKd
RDFDYIADWC [PKN2, Q16513]	below the threshold
VRPGVKESLV [SCN4A, P35499]	4.73
TGPWKNETTV [ADGRA1, Q86SQ6]	4.47

Molecular target: T5, PTPN13_1, Q12923
Experiment: holdup assay
Design: key: below the threshold = too weak to quantify, mostly under pKd 3.1 to 4
Details: plain residues with an end cap or a label only (N-terminal biotin on a linker: ado-ado)

Binder	pKd
RDFDYIADWC [PKN2, Q16513]	below the threshold
VRPGVKESLV [SCN4A, P35499]	below the threshold
TGPWKNETTV [ADGRA1, Q86SQ6]	below the threshold

Molecular target: DLG2_3, Q15700
Experiment: holdup assay
Design: key: below the threshold = too weak to quantify, mostly under pKd 3.1 to 4
Details: plain residues with an end cap or a label only (N-terminal biotin on a linker: ado-ado)

Binder	pKd
RDFDYIADWC [PKN2, Q16513]	3.77
VRPGVKESLV [SCN4A, P35499]	4.27
TGPWKNETTV [ADGRA1, Q86SQ6]	4.64

Molecular target: T6, TJP3_3, O95049
Experiment: holdup assay
Design: key: below the threshold = too weak to quantify, mostly under pKd 3.1 to 4
Details: plain residues with an end cap or a label only (N-terminal biotin on a linker: ado-ado)

Binder	pKd
RDFDYIADWC [PKN2, Q16513]	4.57
VRPGVKESLV [SCN4A, P35499]	below the threshold
TGPWKNETTV [ADGRA1, Q86SQ6]	below the threshold

Molecular target: FRMPD3, Q5JV73
Experiment: holdup assay
Design: key: below the threshold = too weak to quantify, mostly under pKd 3.1 to 4
Details: plain residues with an end cap or a label only (N-terminal biotin on a linker: ado-ado)

Chain of FRMPD3, Q5JV73 (Q5JV73 12-100): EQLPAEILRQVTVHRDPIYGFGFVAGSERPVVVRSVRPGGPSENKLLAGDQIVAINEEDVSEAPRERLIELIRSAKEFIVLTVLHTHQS

Binder	pKd
RDFDYIADWC [PKN2, Q16513]	3.48
VRPGVKESLV [SCN4A, P35499]	below the threshold
TGPWKNETTV [ADGRA1, Q86SQ6]	below the threshold

Molecular target: GORASP1, Q9BQQ3
Experiment: holdup assay
Design: key: below the threshold = too weak to quantify, mostly under pKd 3.1 to 4
Details: plain residues with an end cap or a label only (N-terminal biotin on a linker: ado-ado)

Chain of GORASP1, Q9BQQ3 (Q9BQQ3 1-208): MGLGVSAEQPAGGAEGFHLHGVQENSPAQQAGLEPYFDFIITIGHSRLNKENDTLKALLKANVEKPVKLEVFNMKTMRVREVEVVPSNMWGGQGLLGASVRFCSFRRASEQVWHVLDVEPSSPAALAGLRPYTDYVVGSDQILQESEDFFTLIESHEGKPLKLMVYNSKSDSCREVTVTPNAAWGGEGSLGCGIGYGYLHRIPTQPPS

Binder	pKd
RDFDYIADWC [PKN2, Q16513]	below the threshold
VRPGVKESLV [SCN4A, P35499]	below the threshold
TGPWKNETTV [ADGRA1, Q86SQ6]	below the threshold

Molecular target: T7, SNTA1, Q13424
Experiment: holdup assay
Design: key: below the threshold = too weak to quantify, mostly under pKd 3.1 to 4
Details: plain residues with an end cap or a label only (N-terminal biotin on a linker: ado-ado)

Binder	pKd
RDFDYIADWC [PKN2, Q16513]	below the threshold
VRPGVKESLV [SCN4A, P35499]	4.76
TGPWKNETTV [ADGRA1, Q86SQ6]	4.59

Molecular target: T8, RHPN1, Q8TCX5
Experiment: holdup assay
Design: key: below the threshold = too weak to quantify, mostly under pKd 3.1 to 4
Details: plain residues with an end cap or a label only (N-terminal biotin on a linker: ado-ado)

Binder	pKd
RDFDYIADWC [PKN2, Q16513]	below the threshold
VRPGVKESLV [SCN4A, P35499]	4.33
TGPWKNETTV [ADGRA1, Q86SQ6]	4.55

Molecular target: ARHGEF12, Q9NZN5-2
Experiment: holdup assay
Design: key: below the threshold = too weak to quantify, mostly under pKd 3.1 to 4
Details: plain residues with an end cap or a label only (N-terminal biotin on a linker: ado-ado)

Chain of ARHGEF12, Q9NZN5-2 (Q9NZN5 other isoform, or with tags, fused parts or gaps): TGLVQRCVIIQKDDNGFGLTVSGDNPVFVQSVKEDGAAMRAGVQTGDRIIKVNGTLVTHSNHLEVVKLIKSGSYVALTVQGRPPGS

Binder	pKd
RDFDYIADWC [PKN2, Q16513]	below the threshold
VRPGVKESLV [SCN4A, P35499]	below the threshold
TGPWKNETTV [ADGRA1, Q86SQ6]	4.05

Molecular target: T9, PDZD7_3, Q9H5P4
Experiment: holdup assay
Design: key: below the threshold = too weak to quantify, mostly under pKd 3.1 to 4
Details: plain residues with an end cap or a label only (N-terminal biotin on a linker: ado-ado)

Binder	pKd
RDFDYIADWC [PKN2, Q16513]	below the threshold
VRPGVKESLV [SCN4A, P35499]	5.05
TGPWKNETTV [ADGRA1, Q86SQ6]	4.9

Molecular target: T10, HTRA3, P83110
Experiment: holdup assay
Design: key: below the threshold = too weak to quantify, mostly under pKd 3.1 to 4
Details: plain residues with an end cap or a label only (N-terminal biotin on a linker: ado-ado)

Binder	pKd
RDFDYIADWC [PKN2, Q16513]	5.86
VRPGVKESLV [SCN4A, P35499]	below the threshold
TGPWKNETTV [ADGRA1, Q86SQ6]	below the threshold

Molecular target: PDZRN4_1, Q6ZMN7
Experiment: holdup assay
Design: key: below the threshold = too weak to quantify, mostly under pKd 3.1 to 4
Details: plain residues with an end cap or a label only (N-terminal biotin on a linker: ado-ado)

Chain of PDZRN4_1, Q6ZMN7 (Q6ZMN7 213-318): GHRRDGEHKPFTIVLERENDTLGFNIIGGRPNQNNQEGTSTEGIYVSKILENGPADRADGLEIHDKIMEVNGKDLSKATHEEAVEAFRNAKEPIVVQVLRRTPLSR

Binder	pKd
RDFDYIADWC [PKN2, Q16513]	below the threshold
VRPGVKESLV [SCN4A, P35499]	4.25
TGPWKNETTV [ADGRA1, Q86SQ6]	4.31

Molecular target: T11, APBA3_1, O96018
Experiment: holdup assay
Design: key: below the threshold = too weak to quantify, mostly under pKd 3.1 to 4
Details: plain residues with an end cap or a label only (N-terminal biotin on a linker: ado-ado)

Binder	pKd
RDFDYIADWC [PKN2, Q16513]	below the threshold
VRPGVKESLV [SCN4A, P35499]	below the threshold
TGPWKNETTV [ADGRA1, Q86SQ6]	below the threshold

Molecular target: T12, DVL3, Q92997
Experiment: holdup assay
Design: key: below the threshold = too weak to quantify, mostly under pKd 3.1 to 4
Details: plain residues with an end cap or a label only (N-terminal biotin on a linker: ado-ado)

Binder	pKd
RDFDYIADWC [PKN2, Q16513]	below the threshold
VRPGVKESLV [SCN4A, P35499]	below the threshold
TGPWKNETTV [ADGRA1, Q86SQ6]	below the threshold

Molecular target: PTPN3, P26045
Experiment: holdup assay
Design: key: below the threshold = too weak to quantify, mostly under pKd 3.1 to 4
Details: plain residues with an end cap or a label only (N-terminal biotin on a linker: ado-ado)

Chain of PTPN3, P26045 (P26045 505-587): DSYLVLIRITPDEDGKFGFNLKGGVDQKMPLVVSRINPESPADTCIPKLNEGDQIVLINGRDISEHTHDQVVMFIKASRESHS

Binder	pKd
RDFDYIADWC [PKN2, Q16513]	3.85
VRPGVKESLV [SCN4A, P35499]	4.78
TGPWKNETTV [ADGRA1, Q86SQ6]	4.76

Molecular target: Inadl_4, Q8NI35
Experiment: holdup assay
Design: key: below the threshold = too weak to quantify, mostly under pKd 3.1 to 4
Details: plain residues with an end cap or a label only (N-terminal biotin on a linker: ado-ado)

Chain of Inadl_4, Q8NI35 (Q8NI35 547-651): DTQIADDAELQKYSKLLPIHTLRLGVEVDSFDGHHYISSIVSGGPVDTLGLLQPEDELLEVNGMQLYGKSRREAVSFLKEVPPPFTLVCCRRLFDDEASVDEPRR

Binder	pKd
RDFDYIADWC [PKN2, Q16513]	below the threshold
VRPGVKESLV [SCN4A, P35499]	below the threshold
TGPWKNETTV [ADGRA1, Q86SQ6]	below the threshold

Molecular target: MAGI2_4, Q86UL8
Experiment: holdup assay
Design: key: below the threshold = too weak to quantify, mostly under pKd 3.1 to 4
Details: plain residues with an end cap or a label only (N-terminal biotin on a linker: ado-ado)

Chain of MAGI2_4, Q86UL8 (Q86UL8 772-865): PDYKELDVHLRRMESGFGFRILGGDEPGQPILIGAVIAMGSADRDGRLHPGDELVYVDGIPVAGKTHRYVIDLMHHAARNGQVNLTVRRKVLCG

Binder	pKd
RDFDYIADWC [PKN2, Q16513]	3.53
VRPGVKESLV [SCN4A, P35499]	4.37
TGPWKNETTV [ADGRA1, Q86SQ6]	4.74

Molecular target: MAST1, Q9Y2H9
Experiment: holdup assay
Design: key: below the threshold = too weak to quantify, mostly under pKd 3.1 to 4
Details: plain residues with an end cap or a label only (N-terminal biotin on a linker: ado-ado)

Chain of MAST1, Q9Y2H9 (Q9Y2H9 962-1065): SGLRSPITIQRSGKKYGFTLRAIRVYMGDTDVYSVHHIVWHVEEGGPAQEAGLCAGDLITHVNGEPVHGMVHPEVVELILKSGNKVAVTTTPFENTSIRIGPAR

Binder	pKd
RDFDYIADWC [PKN2, Q16513]	3.8
VRPGVKESLV [SCN4A, P35499]	4.19
TGPWKNETTV [ADGRA1, Q86SQ6]	4.71

Molecular target: Inadl_5, Q8NI35
Experiment: holdup assay
Design: key: below the threshold = too weak to quantify, mostly under pKd 3.1 to 4
Details: plain residues with an end cap or a label only (N-terminal biotin on a linker: ado-ado)

Chain of Inadl_5, Q8NI35 (Q8NI35 673-780): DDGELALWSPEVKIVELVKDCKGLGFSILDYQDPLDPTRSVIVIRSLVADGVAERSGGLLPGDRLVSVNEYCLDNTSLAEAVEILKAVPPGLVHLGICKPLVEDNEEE

Binder	pKd
RDFDYIADWC [PKN2, Q16513]	below the threshold
VRPGVKESLV [SCN4A, P35499]	below the threshold
TGPWKNETTV [ADGRA1, Q86SQ6]	below the threshold

Molecular target: FRMPD2_2, Q68DX3
Experiment: holdup assay
Design: key: below the threshold = too weak to quantify, mostly under pKd 3.1 to 4
Details: plain residues with an end cap or a label only (N-terminal biotin on a linker: ado-ado)

Chain of FRMPD2_2, Q68DX3 (Q68DX3 944-1038): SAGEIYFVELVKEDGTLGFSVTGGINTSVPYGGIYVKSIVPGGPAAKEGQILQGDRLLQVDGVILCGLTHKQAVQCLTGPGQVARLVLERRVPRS

Binder	pKd
RDFDYIADWC [PKN2, Q16513]	below the threshold
VRPGVKESLV [SCN4A, P35499]	3.91
TGPWKNETTV [ADGRA1, Q86SQ6]	3.57
